Test [1] addresses hCMV envelope glycoprotein B (gB) of hCMV strain VR1814 (hCMV strain VR1814). Nature of the test: cell-based or functional assay.
In test [2] the target is hCMV envelope glycoprotein B (gB) of hCMV strain AD169 (hCMV strain AD169, UniProt P06473 32-906). Briefly: cell-based or functional assay.
The target in test [3] is T1, recombinant autologous interstrain fusion antigen CG3 (hCMV strain AD169; hCMV strain Towne, UniProt P06473 27-84; P13201 27-84).
T1 construct: domain: gB Antigenic Domain 2 (AD2); Antigen of the commercial gB(AD2) ELISA (Biotest, Cat. No. 807035; Rothe M et al., 2001); also called CG3 antigen; gB(AD2)
Briefly: ELISA of the subculture supernatant on the gB recombinant antigen (CG3). In general terms: In an ELISA, binding on a coated surface is turned into a signal by an enzyme label.

B1: 8C10 antibody (antibody, V domains shown)
VH: EVQLVQSGAEVKKPGESLKISCKGSGYTFANYWIAWVRQMPGKGLEWMGIIYPGDSDTRYSPSFQGQVTISADKSFHTVYLQWSSLKASDTAIYFCASTSYYDFWSGYHRGREHYYYGMEVWGQGTTVIVSS
VL: TQSPATLSLSPGERVTLSCRASQSVYNYLAWYQQKPGQAPRLLIYDASNRATGIPARFSGSGSGTDFTLTISSLEPEDFAVYYCQLRRGTFGQGTKVEIKR
Consider B1, for which the “hCMV neutralizing activity, dose-response, HUVEC cells with hCMV strain VR1814 (1,000 PFU/reaction), IC50” value in test [1] turned out to be 0.67 µg/mL. Also, the “hCMV neutralizing activity, dose-response, HELF cells with hCMV strain AD169 (1,000 PFU/reaction), IC50” value in test [2] is 0.82 µg/mL.

B2: 37B7 antibody (antibody, V domains shown)
VH: QVQLVQSGGEVKKPGASVKVSCKASGYTFTSSGINWVRQAPGQGLEWMGWINTYNGNTKYAQRLQGRVTMTTDTSTDTAYMELRSLRSDDTAVYYCARDGLNWGWGDYWGQGTLVTVSS
VL: TQSPSTLSASVGDRVIITCRASQSISSWLAWYQQKPGKAPKLLIYKASSLESGVPSRFSGSGSGTEFTLTISSLQPDDFASYYCQQCKGYPYTFGQGTKLEIKR
notes: also called antibody secreted by the 37B7 subculture
As for B2, the binding result in test [3] is recorded as “no binding”.

These data come from patent US20110171233A1 (RIBOVAX BIOTECHNOLOGIES S A, published 2011).
